Target: ubiquitin-methionine-dihydrofolate reductase (mouse) (UniProt P00375)

## Yuh1 ubiquitin-specific protease (from UniProt P35127) (enzyme)
  deubiquitination in vitro (extract of E. coli expressing Yuh1), share of the fusion deubiquitinated: < 50%

— patent US5683904
